Laboratory results taken from patent publication US20130230868A1 (SIEMENS HEALTHCARE DIAGNOSTICS, published 2013).

B1: recombinant gain-of-function GPIbα protein fragment (amino acids 1-285 with amino acid substitutions G233V and M239V) (receptor)
chain: HPICEVSKVASHLEVNCDKRNLTALPPDLPKDTTILHLSENLLYTFSLATLMPYTRLTQLNLDRCELTKLQVDGTLPVLGTLDLSHNQLQSLPLLGQTLPALTVLDVSFNRLTSLPLGALRGLGELQELYLKGNELKTLPPGLLTPTPKLEKLSLANNNLTELPAGLLNGLENLDTLLLQENSLYTIPKGFFGSHLLPFAFLHGNPWLCNCEILYFRRWLQDNAENVYVWKQVVDVKAVTSNVASVQCDNSDKFPVYKYPGKGCPTLGDEGDTDLYDYYPEEDTE

Assays:
[1] = biological target: recombinant gain-of-function GPIbα protein fragment (amino acids 1-285 with amino acid substitutions G233V and M239V) (human) (UniProt P07359); experiment: latex particle agglutination (turbidimetry, 570 nm); inhibition of VWF-GPIbα complex formation by 10 µg/ml AK2 in normal plasma pool
[2] = biological target: recombinant gain-of-function GPIbα protein fragment (amino acids 1-285 with amino acid substitutions G233V and M239V) (human) (UniProt P07359); experiment: latex particle agglutination (turbidimetry, 570 nm); inhibition of VWF-GPIbα complex formation by 20 µg/ml AK2 in normal plasma pool
[3] = biological target: T1, von Willebrand factor (VWF) in plasma (human, UniProt P04275 764-2813); experiment: latex particle agglutination, turbidimetry at 570 nm
T1 construct: mature; Native multimeric VWF present in plasma, not purified; The number of monomers per multimer varies; also called VWF protein
Procedure: The sample used was human citrated plasma from six different donors. 60 μl of sample were mixed with 20 μl of plasma containing VWF (91% of norm VWF, control plasma N, Siemens Healthcare Diagnostics Products GmbH, Marburg, Germany), 13 μl of a solution containing a recombinant gain-of-function GPIbα protein fragment (amino acids 1-285 with amino acid substitutions G233V and M239V; 8.4 μg/ml) and 70 μl of an NaCl buffer and incubated for two minutes. Subsequently, 40 μl of a latex particle reagent containing latex particles coated with anti-GPIbα antibodies were added to the assay mix.
Absorbance at 570 nm of the reaction mixture was measured turbidimetrically. Binding of VWF to GPIbα and binding of the GPIbα protein to the latex particles result in particle agglutination. This agglutination leads to an increase in absorbance, the maximum rate of which is determined (mU/min).

| Molecule | Rate of agglutination [1] [mU/min] | Rate of agglutination [2] [mU/min] | binding result [3] |
| --- | --- | --- | --- |
| anti-GPIb antibody AK2 | 266 | 133 | – |
| B1 | – | – | binds |
